Patent publication US8697369B2, “Method for screening a test substance for activating a receptor associated with FGF 21 activity” (National Institute of Advanced Industrial Science and …, priority 2007, dated 2014)
Entries after “also recorded” stand apart in the source; their conditions may differ. One block for each molecule: values may come before it.

Assays:
[1] = test system: R3c/betaKlotho-expressing cells; test: Phosphorylation of FRS2 and MAPK (Western blotting) in R3c/betaKlotho-expressing cells; type: cell-based, mouse; details: presence of heparin; 10 minutes stimulation
R3c/betaKlotho-expressing cells, sequence (Q61851 21-369 limits assumed): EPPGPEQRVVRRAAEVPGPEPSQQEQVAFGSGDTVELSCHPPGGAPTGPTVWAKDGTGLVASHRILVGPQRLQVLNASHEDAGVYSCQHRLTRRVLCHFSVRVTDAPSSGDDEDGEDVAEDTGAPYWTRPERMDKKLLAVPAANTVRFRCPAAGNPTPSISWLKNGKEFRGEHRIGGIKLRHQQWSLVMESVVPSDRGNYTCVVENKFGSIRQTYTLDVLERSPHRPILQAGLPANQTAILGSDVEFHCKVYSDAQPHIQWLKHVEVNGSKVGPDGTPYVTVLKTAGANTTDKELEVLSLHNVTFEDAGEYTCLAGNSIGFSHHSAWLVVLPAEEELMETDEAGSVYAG
R3c/betaKlotho-expressing cells, sequence (Q99N32 whole entry, further chain): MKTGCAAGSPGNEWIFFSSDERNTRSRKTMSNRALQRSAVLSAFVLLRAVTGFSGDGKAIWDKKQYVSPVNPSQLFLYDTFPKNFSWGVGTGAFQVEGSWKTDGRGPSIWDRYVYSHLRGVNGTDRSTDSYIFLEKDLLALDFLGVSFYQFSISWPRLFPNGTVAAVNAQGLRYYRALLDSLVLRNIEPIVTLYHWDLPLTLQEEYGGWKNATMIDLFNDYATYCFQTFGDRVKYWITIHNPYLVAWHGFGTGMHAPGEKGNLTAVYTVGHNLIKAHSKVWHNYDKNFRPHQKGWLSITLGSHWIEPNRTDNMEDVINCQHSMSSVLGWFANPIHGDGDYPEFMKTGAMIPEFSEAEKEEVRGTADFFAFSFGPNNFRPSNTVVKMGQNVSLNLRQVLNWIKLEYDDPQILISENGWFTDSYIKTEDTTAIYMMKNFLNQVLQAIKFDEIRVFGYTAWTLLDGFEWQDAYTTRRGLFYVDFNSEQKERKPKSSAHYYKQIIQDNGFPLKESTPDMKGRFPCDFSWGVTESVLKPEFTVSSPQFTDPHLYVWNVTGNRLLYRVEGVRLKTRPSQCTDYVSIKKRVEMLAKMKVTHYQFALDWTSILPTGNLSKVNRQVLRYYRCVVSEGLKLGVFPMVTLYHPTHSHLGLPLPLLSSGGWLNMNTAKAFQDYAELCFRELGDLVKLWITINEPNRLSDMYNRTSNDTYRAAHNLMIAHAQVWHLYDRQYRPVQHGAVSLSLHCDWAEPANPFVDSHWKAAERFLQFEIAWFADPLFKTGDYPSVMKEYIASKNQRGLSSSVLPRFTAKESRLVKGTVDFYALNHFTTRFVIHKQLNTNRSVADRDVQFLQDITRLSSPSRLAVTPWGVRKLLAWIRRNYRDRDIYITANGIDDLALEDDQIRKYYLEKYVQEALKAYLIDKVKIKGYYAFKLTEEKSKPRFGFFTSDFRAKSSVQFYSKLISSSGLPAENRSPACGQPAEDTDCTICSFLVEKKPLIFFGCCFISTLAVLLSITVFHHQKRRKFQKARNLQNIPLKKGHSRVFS
Protocol: Each FGFR/betaKlotho-expressing cells obtained in Example 6 were stimulated with FGF, and the activated state (phosphorylated state) of a signaling molecule FRS2 (fibroblast growth factor receptor substrate 2) located downstream of FGFR, and that of MAPK (mitogen activated protein kinase; alias: ERK (extracellular signal-regulated kinase; in general, there are two types of ERKs, namely, ERK1 with a molecular weight of 44 kDa and ERK2 with a molecular weight of 42 kDa)), were analyzed. Different types of cells were stimulated with each FGF in the presence of heparin for 10 minutes, and a cell lysate was then prepared. Thereafter, the phosphorylated degree was evaluated by measuring it by a Western blotting method using a commercially available anti-phosphorylation FRS2 antibody or an anti-phosphorylation MAPK antibody.

[2] = target: T1, FGFR1c/betaKlotho-expressing BaF3 cells (Mus musculus, UniProt P16092+Q99N32); test: DNA synthesis (thymidine incorporation) in FGFR1c/betaKlotho-expressing BaF3 cells; type: cell-based; details: BaF3 cells expressing FGFR1c and betaKlotho; presence or absence of heparin
T1 construct: the entire-length cDNA of mouse FGFR1c had been cloned; the entire-length cDNA of mouse betaKlotho was cloned into an animal cell expression vector; expressed in transfected cells; host or cells: BaF3 (mouse pro-B) cells
T1 sequence (P16092 22-822): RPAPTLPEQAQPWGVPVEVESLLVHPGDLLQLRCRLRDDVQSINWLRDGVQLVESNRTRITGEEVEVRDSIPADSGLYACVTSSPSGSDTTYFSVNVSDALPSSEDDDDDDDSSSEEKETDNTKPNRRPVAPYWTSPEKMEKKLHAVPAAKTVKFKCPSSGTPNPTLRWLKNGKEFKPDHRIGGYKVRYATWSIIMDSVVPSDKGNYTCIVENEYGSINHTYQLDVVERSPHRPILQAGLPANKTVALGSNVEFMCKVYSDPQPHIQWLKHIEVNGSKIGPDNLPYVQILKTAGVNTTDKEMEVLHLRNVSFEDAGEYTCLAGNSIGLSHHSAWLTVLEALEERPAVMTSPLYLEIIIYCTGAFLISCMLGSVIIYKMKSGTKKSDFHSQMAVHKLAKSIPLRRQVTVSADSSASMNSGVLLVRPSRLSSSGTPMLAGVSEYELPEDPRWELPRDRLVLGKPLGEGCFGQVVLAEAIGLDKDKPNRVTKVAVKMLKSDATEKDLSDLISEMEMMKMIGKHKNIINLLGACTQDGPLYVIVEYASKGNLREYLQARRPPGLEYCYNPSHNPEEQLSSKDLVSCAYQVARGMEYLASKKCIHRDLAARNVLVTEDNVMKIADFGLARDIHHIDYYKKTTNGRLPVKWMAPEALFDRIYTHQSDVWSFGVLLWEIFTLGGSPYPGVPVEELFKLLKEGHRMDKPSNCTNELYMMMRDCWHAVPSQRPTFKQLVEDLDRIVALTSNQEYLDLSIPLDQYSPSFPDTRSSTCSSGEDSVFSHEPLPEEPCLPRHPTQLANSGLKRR
T1 sequence (Q99N32 whole entry): as the sequence (Q99N32 whole entry, further chain) above
Protocol: A commonly used measurement method is a cell growth stimulating activity measurement method described in Ornitz, D. M., Xu, J., Colvin, J. S., McEwen, D. G., MacArthur, C. A., Coulier, F., Gao, G. and Goldfarb, M. (1996) Receptor specificity of the fibroblast growth factor family. J Biol Chem, 271, 15292-15297. The summary thereof is as follows. FGF used as a measurement target is added to a culture solution containing a cultured cell having an FGF receptor on the surface thereof, and the obtained mixture is cultured for a certain period of time. Thereafter, a labeled thymidine is added to the culture solution, followed by further culture for a certain period of time. By measuring the amount of the labeled thymidine incorporated into polymeric DNA during the culture, the degree of FGF to activate DNA synthesis is evaluated. (In the present invention as well, this method was adopted when the activity of FGF21 was measured in Examples 4, 5, 6, 8, 9, and 10.)
FGFR1c-expressing BaF3 cells and FGFR1c- and betaKlotho-expressing BaF3 cells were prepared as follows. In the case of FGFR1c-expressing BaF3 cells, an animal cell expression vector into which the entire-length cDNA of mouse FGFR1c had been cloned (described in Ornitz, D. M., Xu, J., Colvin, J. S., McEwen, D. G., MacArthur, C. A., Coulier, F., Gao, G. and Goldfarb, M. (1996) Receptor specificity of the fibroblast growth factor family. J Biol Chem, 271, 15292-15297.) was introduced into BaF3 cells by an electroporation method. The cells were then cultured in the presence of G418 for approximately 2 weeks, so as to obtain drug-resistant clones. Thereafter, such clones were obtained as those capable of growing as a result of FGF1 stimulation. In the case of both FGFR1c- and betaKlotho-expressing BaF3 cells, the entire-length cDNA of mouse betaKlotho was cloned into an animal cell expression vector, and it was then introduced into the FGFR1c-expressing BaF3 cells. The cells were then cultured in the presence of Puromycin and G418 for approximately 2 weeks, so as to obtain drug-resistant clones. In the case of only betaKlotho-expressing BaF3 cells, a betaKlotho-expressing vector was introduced into BaF3 cells, and Puromycin-resistant clones were then obtained. The BaF3 cells, into which the aforementioned genes had been each introduced, were maintained in an RPMI1640 medium containing 10% FBS and interleukin 3 (IL3, supplied by adding a 5% condition medium of WEHI-3 cells). For the growth stimulation experiment, the cells were washed with an RPMI1640 medium, and they were then suspended in an RPMI1640 medium containing 10% FBS, followed by inoculating the suspension on a culture plate. Thereafter, the resultant cells were used.
Immediately after inoculation, BaF3 cells that had expressed each clone and only FGFR1c were stimulated by addition of FGF21 (open bar) or PBS (filled bar) used as a control in the presence of heparin, and they were then cultured for 42 hours. Thereafter, tritium-labeled thymidine was added to the culture solution, and the culture was further continued for 6 hours. Thereafter, the amount of thymidine incorporated into the cells was measured, so as to evaluate DNA synthesis. A DNA synthesis value obtained when the cells were not stimulated with FGF21 was defined as 1, and the ratio of a DNA synthesis value obtained by stimulating with FGF21 to the aforementioned DNA synthesis value was expressed using magnification. […]

- DNA synthesis (thymidine incorporated into the cells) [2]: reacts with all of the receptors
Molecule: FGF1: conventional FGF used as a control
- phosphorylation of FRS2 and MAPK [1]: significantly increase the phosphorylation

B1: FGF21: fibroblast growth factor 21; mouse-derived protein used in Examples 1-7 and 10-13 (protein)
chain: AYPIPDSSPLLQFGGQVRQRYLYTDDDQDTEAHLEIREDGTVVGAAHRSPESLLELKALKPGVIQILGVKASRFLCQQPDGALYGSPHFDPEACSFRELLLEDGYNVYQSEAHGLPLRLPQKDSPNQDATSWGPVRFLPMPGLLHEPQDQAGFLPPEPPDVGSSDPLSMVEPLQGRSPSYAS
- phosphorylation of FRS2 and MAPK [1]: increases the phosphorylation
- DNA synthesis (thymidine incorporated into the cells) [2]: reacted with FGF21; also recorded: dose-dependently stimulate DNA synthesis; also recorded: activates; also recorded: able to act on FGFR1c-expressing cells
